Data published in the RNAGym collection of RNA variant scans (doi:10.1073/pnas.2313332121).

B1: TPR t1 (parent)
chain: GACCAAUCUGCCCUCAGAGCUCGAGAACAUCUUCGGAUGCAGAGGAGGCAGGCUUCGGUGGCGCGAUAGCGCCAACGUCCUCAACCUCCAAUGCAUCCCACCACAUGAUGAUGCCUGAAGAGCCUUGGUUUUUUG

Variants of: B1
Assay: polymerase ribozyme fitness, log enrichment relative to wild type (log ratio); higher = more active; in vitro selection for triplet polymerase activity
In short: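 Mutant libraries of each subunit of a heterodimeric triplet polymerase ribozyme were built by PCR and transcribed. Each library went through one round of in vitro selection in triplicate: annealing with biotinylated primer, partner subunit and triplets, frozen incubation at −7 °C, gel excision of extended constructs, streptavidin-bead capture and RT-PCR. Input and output libraries were Illumina-sequenced; only genotypes with ≥10 input reads and ≥1 read per output were kept. Fitness is log2(genotype enrichment/wild-type enrichment), using inverse-variance-weighted replicate averages.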

Variant	polymerase ribozyme fitness (log ratio)
GACCAAUCUGCCCUCAGAGCUCGAGAACAUCUUCGGAUGCAGAGGAGGCAGGCUUCGGUCGCGCGAUAGCGCCAACGUCCUCAACCUCCAAUGCAUCCCACCACAUGAUGAUGCCUGAAGAGCCAUGGUUUUUUG [G60C U125A]	-0.729
GACCAAUCUGCCCUCAGAGCUCGAGAACAUCUUCGGAUGCAGAGGAGGCAGGCUUCGGUUGCGCGAUAGCGCCAACGUCCUCAACCUCCAAUGCAUCCCACCGCAUGAUGAGGCCUGAAGAGCCUUGGUUUUUUG [G60U A103G U112G]	-6.67
GACCAAUCUGCCCUCAGAGCUCGAGAACAUCUUCGGAUGCAGAGGAGGCAGGCUUCGGUUGCGCGAUAGCGCCAACGUCCUCAGCCUCCAAUGCAUCCCACCACAUGAUGAUGCCUGAAGAGCCUUGAUUUUUUG [G60U A84G G128A]	-1.56
GACCAAUCUGCCCUCAGAGCUCGAGAACAUCUUCGGAUGCAGAGGAGGCAGGCUUCGGUUGCGCGAUAGCGCCAACGUCCUCAACCUCCCAUGCAUCCCACCACAUGAUGAUGCCUGAAGAGCCUUGGUUUUUUG [G60U A90C]	-1.12
GACCAAUCUGCCCUCAGAGCUCGAGAACAUCUUCGGAUGCAGAGGAGGCAGGCUUCGGUCGCGCGAUAUCGCCAACGUCUUCAACCUCCAAUGCAUCCCACCACAUGAUGAUGCCUGAAGAGCCUUGGUUUUUUG [G60C G69U C80U]	-5.8
GACCAAUCUGCCCUCAGAGCUCGAGAACAUCUUCGGAUGCAGAGGAGGCAGGCUUCGGUCGCGCGAUAGCGCCAACGUCCUCAACCUCCAAUGCAUCCCACCACAUGAUGAUGCCUGAAAAGCCUUGGUUUUUUG [G60C G120A]	0.168
GACCAAUCUGCCCUCAGAGCUCGAGAACAUCUUCGGAUGCAGAGGAGGCAGGCUUCGGUCGCGCGAUAGCGCCAACGUCCUCAACCUCCAAUGCAUCCCACCACAUGAUGAUGCCUGAAGAGCUUUGGUUUUUUG [G60C C124U]	1
GACCAAUCUGCCCUCAGAGCUCGAGAACAUCUUCGGAUGCAGAGGAGGCAGGCUUCGGUCGCGCGAUAGCGCCAACGUCCUCAACCUCCAAUGCAUCCCACCACAUGAUGAUGCCUCAAGAGCCUUGGUUUUUUG [G60C G117C]	-4.28
GACCAAUCUGCCCUCAGAGCUCGAGAACAUCUUCGGAUGCAGAGGAGGCAGGCUUCGGUCGCGCGAUAGCGCCAACGUCCUCAACCUCCAAUGCAUCCCACCACAUGAUGAUGCCUUAAGAGCCUUGGUUUUUUG [G60C G117U]	-3.4
GACCAAUCUGCCCUCAGAGCUCGAGAACAUCUUCGGAUGCAGAGGAGGCAGGCUUCGGUUGCGCGAUAGCGCCAACGUCCUCAACCUCCACUUCAUCCCACCAAAUGAUGAUGCCUUAAGAGCCUUGGUUUUUUG [G60U A91C G93U C104A G117U]	-6
GACCAAUCUGCCCUCAGAGCUCGAGAACAUCUUCGGAUGCAGAGGAGGCAGGCUUCGGUUGCGCGAUAGCGCCAUCGUCCUCAACCUCCAAUGCAUCCCACCACAUGAUGAUGCCUCAAGAGCCUUGGUUUUUUG [G60U A75U G117C]	-3.72
GACCAAUCUGCCCUCAGAGCUCGAGAACAUCUUCGGAUGCAGAGGAGGCAGGCUUCGGUUGCGCGAUAGCGCCAACGUCCUCAACCUCCAAUGCAUCCCACCACAUGAUGCUGCCUGAAGACCCUUGGUUUUUUG [G60U A111C G122C]	-0.82
GACCAAUCUGCCCUCAGAGCUCGAGAACAUCUUCGGAUGCAGAGGAGGCAGGCUUCGGUCGCGCGAUAGCGCCAACGUCCUCAACCUCCAAUGCAUCCCACCACAUGAUGAAGCCUGAAGAGCCUUGGUUUUUUG [G60C U112A]	0.838
GACCAAUCUGCCCUCAGAGCUCGAGAACAUCUUCGGAUGCAGAGGAGGCAGGCUUCGGUCGCGCGAUAGCGCCAACGUCCUCAACCUCCAAUGCAUCCCACCACAUGAUGAGGCCUGAAGAGCCUUGGUUUUUUG [G60C U112G]	-0.433
GACCAAUCUGCCCUCAGAGCUCGAGAACAUCUUCGGAUGCAGAGGAGGCAGGCUUCGGUUGCGCGAUAGCGCCAACGUCCUCAACCUCCAAUGCGUCCCACCACAUGAUGAUGCGUGAAGAGCCUUGGUUUUUUG [G60U A95G C115G]	-2.25
GACCAAUCUGCCCUCAGAGCUCGAGAACAUCUUCGGAUGCAGAGGAGGCAGGCUUCGGUCGCGCGAUAGCGCCAACGUCCUCAACCUCCAAUGCAUCCCACCACAUGAUGAUGCCUGAAGAGCCUUGGGUUUUUG [G60C U129G]	-1.43
GACCAAUCUGCCCUCAGAGCUCGAGAACAUCUUCGGAUGCAGAGGAGGCAGGCUUCGGUUGCGCGAUAGCGCCAACGUCCUCAACCUCCAAUGCAUCCCACCACAUGCUGAUGCCUGAAGAGCAUUGGUUUUUUG [G60U A108C C124A]	-5.47
GACCAAUCUGCCCUCAGAGCUCGAGAACAUCUUCGGAUGCAGAGGAGGCAGGCUUCGGUCGCGCGAUAGCGCCAACGUCCUCAACCUCCAAUGCAUCCCACCACAUGAUGAUGCCUGAAGAGCCUUUGUUUUUUG [G60C G127U]	-0.837
GACCAAUCUGCCCUCAGAGCUCGAGAACAUCUUCGGAUGCAGAGGAGGCAGGCUUCGGUCGCGCGAUAGCGCCAACGUCCUCAACCUCCAAUGCAUCCCACCACAUGAUAAUGCCUGAAGAGCCUUGGUUUUUUG [G60C G110A]	-1
GACCAAUCUGCCCUCAGAGCUCGAGAACAUCUUCGGAUGCAGAGGAGGCAGGCUUCGGUUGCGCGAUAGCGCCAACGUCCUCAACCUCCAAUGCAUCCCACCACAUGAUGGUGCCUGAAGAGCCUUGGUUUUUUG [G60U A111G]	0.488
GACCAAUCUGCCCUCAGAGCUCGAGAACAUCUUCGGAUGCAGAGGAGGCAGGCUUCGGUUGCGCGAUAGCGCCAACGUCCUCAACCUCCAAUGCAUCCCACCACAUGAUGUUGCCUGAAGAGCCUUGGUUUUUUG [G60U A111U]	-2.87
